Results reported in patent US6299877.

What was measured:
[1] = molecular target: IFN-αR1 (IFNAR1), type I interferon receptor subunit on cells (human) (UniProt P17181)
[2] = molecular target: IFN-αR2 (IFNAR2), type I interferon receptor subunit on cells (human) (UniProt P48551)

Histidine (His)-tagged IFN-ε (IFN-ε^His), recombinant, expressed in E. coli (ligand)
growth inhibition of Daudi cells, IC50 [1]: 100 µM | growth inhibition of Daudi cells, IC50 [2]: 100 µM
